Source: patent US20260184748A1 (University of Pennsylvania, published 2026)
Where no end group is shown, it is not given here.

Legend:
Assay in all cases: cell-based or functional assay
P2RY2 = P2RY2 (UniProt P41231 1-377)
FPR1 = biological target: T1, FPR1 (UniProt P21462 1-350)
T1 sequence (looked up): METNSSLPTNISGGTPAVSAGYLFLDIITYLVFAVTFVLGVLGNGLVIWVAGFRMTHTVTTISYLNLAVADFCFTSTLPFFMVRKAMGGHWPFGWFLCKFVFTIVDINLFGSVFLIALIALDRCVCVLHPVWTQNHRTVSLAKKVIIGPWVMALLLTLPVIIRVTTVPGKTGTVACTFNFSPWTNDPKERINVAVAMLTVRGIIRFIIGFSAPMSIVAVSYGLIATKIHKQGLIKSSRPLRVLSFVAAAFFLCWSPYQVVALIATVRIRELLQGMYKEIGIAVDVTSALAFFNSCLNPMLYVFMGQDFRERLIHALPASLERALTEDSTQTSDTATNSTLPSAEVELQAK

NPY2R = biological target: T2, NPY2R (UniProt P49146 1-381)
T2 sequence (looked up): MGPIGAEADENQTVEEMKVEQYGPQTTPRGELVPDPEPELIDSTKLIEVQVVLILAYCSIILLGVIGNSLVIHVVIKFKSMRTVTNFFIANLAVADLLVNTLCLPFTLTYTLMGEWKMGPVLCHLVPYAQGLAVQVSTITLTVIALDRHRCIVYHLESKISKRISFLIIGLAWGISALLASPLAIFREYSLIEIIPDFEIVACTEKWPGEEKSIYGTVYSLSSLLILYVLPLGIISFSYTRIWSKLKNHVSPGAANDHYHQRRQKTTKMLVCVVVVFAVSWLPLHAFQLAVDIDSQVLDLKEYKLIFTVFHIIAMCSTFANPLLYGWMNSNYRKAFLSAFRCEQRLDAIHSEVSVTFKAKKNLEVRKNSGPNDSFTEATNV

AGTRL1 = biological target: T3, AGTRL1 (UniProt P35414 1-380)
T3 sequence (looked up): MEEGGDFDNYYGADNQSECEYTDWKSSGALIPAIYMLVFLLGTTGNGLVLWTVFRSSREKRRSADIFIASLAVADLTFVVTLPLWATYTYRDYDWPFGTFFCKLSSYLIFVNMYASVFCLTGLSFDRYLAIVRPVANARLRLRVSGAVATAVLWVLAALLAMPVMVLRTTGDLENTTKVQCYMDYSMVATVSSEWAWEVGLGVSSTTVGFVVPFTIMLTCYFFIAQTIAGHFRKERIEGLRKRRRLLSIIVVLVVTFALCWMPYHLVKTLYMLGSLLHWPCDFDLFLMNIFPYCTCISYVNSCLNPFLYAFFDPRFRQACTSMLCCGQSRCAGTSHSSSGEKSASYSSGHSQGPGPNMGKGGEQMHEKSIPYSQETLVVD

BDKRB2 = biological target: T4, BDKRB2 (UniProt P30411 1-391, limits assumed)
T4 sequence (looked up): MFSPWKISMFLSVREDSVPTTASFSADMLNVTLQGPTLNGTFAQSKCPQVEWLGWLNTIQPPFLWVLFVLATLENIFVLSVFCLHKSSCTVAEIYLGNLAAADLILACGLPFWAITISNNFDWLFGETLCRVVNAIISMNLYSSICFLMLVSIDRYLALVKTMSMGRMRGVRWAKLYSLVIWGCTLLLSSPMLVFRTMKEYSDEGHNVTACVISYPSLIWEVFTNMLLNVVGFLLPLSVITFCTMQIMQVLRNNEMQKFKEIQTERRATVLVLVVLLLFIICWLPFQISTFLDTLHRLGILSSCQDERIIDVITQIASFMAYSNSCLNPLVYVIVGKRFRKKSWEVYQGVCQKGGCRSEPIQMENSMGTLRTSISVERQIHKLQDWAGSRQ

GPR35 = GPR35 (UniProt Q9HC97 1-309, limits assumed)
CALCRL-RAMP2 = CALCRL-RAMP2 (UniProt Q16602 23-461; O60895 43-175)
CHRM1 = biological target: T5, CHRM1 (UniProt P11229 1-460)
T5 sequence (looked up): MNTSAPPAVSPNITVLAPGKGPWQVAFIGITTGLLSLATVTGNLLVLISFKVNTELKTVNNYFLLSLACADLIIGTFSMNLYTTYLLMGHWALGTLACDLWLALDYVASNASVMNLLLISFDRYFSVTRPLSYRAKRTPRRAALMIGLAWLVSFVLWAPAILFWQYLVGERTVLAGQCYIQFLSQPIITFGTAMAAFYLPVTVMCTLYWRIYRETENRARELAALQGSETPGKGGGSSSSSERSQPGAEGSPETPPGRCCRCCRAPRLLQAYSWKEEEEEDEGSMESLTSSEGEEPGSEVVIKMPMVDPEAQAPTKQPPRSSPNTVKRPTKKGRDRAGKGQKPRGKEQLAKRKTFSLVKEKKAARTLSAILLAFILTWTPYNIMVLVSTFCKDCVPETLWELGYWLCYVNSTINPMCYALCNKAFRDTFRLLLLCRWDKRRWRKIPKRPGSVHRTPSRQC

CCR2 = biological target: T6, CCR2 (UniProt P41597-2 1-360, limits assumed)
T6 sequence (looked up): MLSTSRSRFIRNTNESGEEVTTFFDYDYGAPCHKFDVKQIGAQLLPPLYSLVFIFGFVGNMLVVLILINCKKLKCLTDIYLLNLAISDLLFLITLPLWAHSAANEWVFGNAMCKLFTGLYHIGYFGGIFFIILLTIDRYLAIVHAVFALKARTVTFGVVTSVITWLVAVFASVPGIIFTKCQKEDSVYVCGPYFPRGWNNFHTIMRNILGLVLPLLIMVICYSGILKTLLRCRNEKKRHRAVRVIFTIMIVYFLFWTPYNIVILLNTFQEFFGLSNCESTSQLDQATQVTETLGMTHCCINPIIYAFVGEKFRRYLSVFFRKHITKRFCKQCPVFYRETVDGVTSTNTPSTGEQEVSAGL

CALCRL-RAMP2, sequence (Q16602 23-461 limits assumed, chain 1 of 2): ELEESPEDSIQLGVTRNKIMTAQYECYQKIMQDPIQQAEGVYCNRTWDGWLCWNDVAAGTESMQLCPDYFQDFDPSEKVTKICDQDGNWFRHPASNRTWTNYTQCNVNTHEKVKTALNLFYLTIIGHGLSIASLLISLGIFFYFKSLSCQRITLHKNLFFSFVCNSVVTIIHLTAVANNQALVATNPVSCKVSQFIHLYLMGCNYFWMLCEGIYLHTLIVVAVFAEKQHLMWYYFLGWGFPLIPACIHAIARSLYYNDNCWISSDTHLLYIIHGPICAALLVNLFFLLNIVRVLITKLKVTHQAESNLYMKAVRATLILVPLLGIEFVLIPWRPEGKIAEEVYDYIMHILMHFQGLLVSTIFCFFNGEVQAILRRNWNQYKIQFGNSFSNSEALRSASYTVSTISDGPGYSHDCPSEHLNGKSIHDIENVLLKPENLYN
CALCRL-RAMP2, sequence (O60895 43-175 limits assumed, chain 2 of 2): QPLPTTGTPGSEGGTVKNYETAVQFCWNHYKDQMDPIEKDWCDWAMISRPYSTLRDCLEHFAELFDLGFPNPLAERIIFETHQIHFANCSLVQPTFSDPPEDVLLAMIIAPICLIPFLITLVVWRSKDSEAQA
P2RY2, sequence (P41231 whole entry): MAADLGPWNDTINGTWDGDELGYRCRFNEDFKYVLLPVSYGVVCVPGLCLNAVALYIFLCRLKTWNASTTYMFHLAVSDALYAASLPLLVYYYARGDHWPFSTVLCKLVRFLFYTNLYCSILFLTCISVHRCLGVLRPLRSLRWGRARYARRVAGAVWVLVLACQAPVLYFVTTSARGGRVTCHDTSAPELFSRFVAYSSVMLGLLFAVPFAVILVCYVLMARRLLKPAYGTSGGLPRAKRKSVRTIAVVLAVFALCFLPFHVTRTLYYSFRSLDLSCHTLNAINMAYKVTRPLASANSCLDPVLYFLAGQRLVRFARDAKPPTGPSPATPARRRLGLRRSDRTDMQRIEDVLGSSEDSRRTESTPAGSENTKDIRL
GPR35, sequence (Q9HC97 whole entry): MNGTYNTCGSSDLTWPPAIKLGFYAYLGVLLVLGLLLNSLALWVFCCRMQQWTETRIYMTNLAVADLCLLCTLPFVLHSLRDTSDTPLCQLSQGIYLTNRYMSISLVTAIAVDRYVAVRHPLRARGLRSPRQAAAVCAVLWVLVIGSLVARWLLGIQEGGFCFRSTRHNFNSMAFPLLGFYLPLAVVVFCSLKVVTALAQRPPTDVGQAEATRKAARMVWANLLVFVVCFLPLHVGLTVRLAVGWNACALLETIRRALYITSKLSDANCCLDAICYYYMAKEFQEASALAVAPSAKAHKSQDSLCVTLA

B1: octadecaneuropeptide (ODN) (peptide)
peptide: QATVGDVNTDRPGLLDLK
modifications: also: synthesised on Rink amide resin, C-terminal amide not given here outright
Q: How did the “% Activity, arrestin, antagonist mode, 2.5 uM” value (“% Activity, arrestin” below) (P2RY2) turn out when B1 was run?
A: The value was -5.2%.

Q: What about the “% Activity, arrestin” value (FPR1) of the same binder?
A: The value was -11.1%.

Q: What about the “% Activity, arrestin” value (NPY2R) of the same binder?
A: Its value is -10.3%.

Q: What about the “% Activity, arrestin” value (AGTRL1) of the same binder?
A: The value was -23.4%.

Q: What about the “% Activity, arrestin” value (BDKRB2) of the same binder?
A: Its value is -1.7%.

Q: What about the “% Activity, arrestin” value (GPR35) of the same binder?
A: Its value is -12.2%.

Q: What about the “% Activity, arrestin” value (CALCRL-RAMP2) of the same binder?
A: The value was -11.6%.

Q: What about the “% Activity, arrestin” value (CHRM1) of the same binder?
A: Its value is 9.3%.

Q: What about the “% Activity, arrestin” value (CCR2) of the same binder?
A: The value was -15.4%.
